# Data reported in paper PMC3701795, “Heterologous expression and characterization of a malathion-hydrolyzing carboxylesterase from a thermophilic bacterium, Alicyclobacillus tengchongensis” (Biotechnology Letters, 2013).
# Tested on: CC(=O)Oc1ccc2ccccc2c1
# Experiment: purified protein
# Settings: pH 7 potassium phosphate, 60 °C, 0.1-0.95 mM substrate
substance,measurement,value
D1CarE5 (Alicyclobacillus sp. D-1),Km,1000 µM
